Reference: paper PMC11094360, “Systematic characterization of gene families and functional analysis of PvRAS3 and PvRAS4 involved in rosmarinic acid biosynthesis in Prunella vulgaris” (Frontiers in Plant Science, 2024)

Tests used:
PvRAS4 [1] = experiment: UPLC of product formation, nonlinear regression; format: biochemical, Prunella vulgaris; settings: varied acyl donor, 2 mM DHPL; 100 mM Tris-HCl pH 7.0, 2 mM DTT, 4 mM MgCl2, 10% glycerol, 25 °C
Text: UPLC of product formation, nonlinear regression on PvRAS4

PvRAS4 [2] = experiment: UPLC of acceptor consumption, nonlinear regression; format: biochemical, Prunella vulgaris; settings: varied acyl acceptor, 2 mM p-coumaroyl-CoA; 100 mM Tris-HCl pH 7.0, 2 mM DTT, 4 mM MgCl2, 10% glycerol, 25 °C
Text: UPLC of acceptor consumption, nonlinear regression on PvRAS4

purified protein = substrate: O=C(O)[C@H](O)Cc1ccc(O)c(O)c1; experiment: purified protein; settings: varied acyl acceptor, 2 mM p-coumaroyl-CoA, 100 mM Tris-HCl pH 7.0, 2 mM DTT, 4 mM MgCl2, 10% glycerol, 25 °C
[3] = substrate: O=C(O)C(O)Cc1ccc(O)cc1; experiment: UPLC of acceptor consumption, nonlinear regression; format: biochemical, Prunella vulgaris; settings: varied acyl acceptor, 2 mM p-coumaroyl-CoA, 100 mM Tris-HCl pH 7.0, 2 mM DTT, 4 mM MgCl2, 10% glycerol, 25 °C
Text: UPLC of acceptor consumption, nonlinear regression on PvRAS3

[4] = substrate: CC(C)(COP(=O)(O)OP(=O)(O)OC[C@H]1O[C@@H](n2cnc3c(N)ncnc32)[C@H](O)[C@@H]1OP(=O)(O)O)[C@@H](O)C(=O)NCCC(=O)NCCSC(=O)/C=C/c1ccc(O)c(O)c1; experiment: UPLC of product formation, nonlinear regression; format: biochemical, Prunella vulgaris; settings: varied acyl donor, 2 mM DHPL, 100 mM Tris-HCl pH 7.0, 2 mM DTT, 4 mM MgCl2, 10% glycerol, 25 °C
[5] = substrate: CC(C)(COP(=O)(O)OP(=O)(O)OC[C@H]1O[C@@H](n2cnc3c(N)ncnc32)[C@H](O)[C@@H]1OP(=O)(O)O)[C@@H](O)C(=O)NCCC(=O)NCCSC(=O)/C=C/c1ccc(O)cc1; experiment: UPLC of product formation, nonlinear regression; format: biochemical, Prunella vulgaris; settings: varied acyl donor, 2 mM pHPL, 100 mM Tris-HCl pH 7.0, 2 mM DTT, 4 mM MgCl2, 10% glycerol, 25 °C

## CC(C)(COP(=O)(O)OP(=O)(O)OC[C@H]1O[C@@H](n2cnc3c(N)ncnc32)[C@H](O)[C@@H]1OP(=O)(O)O)[C@@H](O)C(=O)NCCC(=O)NCCSC(=O)/C=C/c1ccc(O)cc1 [p-coumaroyl-CoA]
PvRAS4 [1]
  Km: 218 ± 10.3 µM

## O=C(O)C(O)Cc1ccc(O)cc1 (stereo not shown) [pHPL]
PvRAS4 [2]
  Km: 228 ± 16.6 µM

## O=C(O)[C@H](O)Cc1ccc(O)c(O)c1 [DHPL]
PvRAS4 [2]
  Km: 227 ± 17.5 µM

B1: PvRAS3 (Prunella vulgaris) (protein)
chain: MKIEVKESTMVKPAAETPTGGLWISNLDLLSPANYHTLSVHFYRHDGSDNFFEAAPLKEALSRALVEFYPYAGRLKLNGKRLEIDCNGEGLLLVEAESDGTLEELGDFAPRPDLNLIPKVDYSKGISSYPLMLFQITRFKCGGVGLGVANEHHLSDGVSALHFINTWCHLARGVPAPSPAPVFDRTALSARSPPKVEFTHPEFQPPPTLPTPLEHTDIAYAKLKLSRDQLNALKAKCKSPATANGQENGKPARPYSTFEVLAGHIWRCVCAARGLPAEQETKLHIPFDGRAKLQLPAGFFGNAIFFATPIATCGEVEANSLSYAVRRVGDAIGRLDEEYLRSSVDFLELQDDISKLAQGAHSFRCPNLWVISWVRLPIYEPDFGWGKAVYMGPWAAPFEGKSYLLPNPDNDGSLFVAITLHTQHMDRFQNFFYDI
Purified protein
  Km: 41.7 ± 1.2 µM
  Vmax: 18.2 µmol/min/mg
  kcat: 30.5 s⁻¹
  kcat/Km: 700000 M⁻¹ s⁻¹
[3]
  Km: 32.1 ± 0.7 µM
  Vmax: 19.4 µmol/min/mg
  kcat: 33.3 ± 2.3 s⁻¹
  kcat/Km: 1e+06 M⁻¹ s⁻¹
[4]
  Km: 173.2 ± 9.0 µM
  Vmax: 9.95 µmol/min/mg
  kcat: 14.1 ± 1 s⁻¹
  kcat/Km: 80000 M⁻¹ s⁻¹
[5]
  Km: 30.6 ± 1.2 µM
  Vmax: 18.7 µmol/min/mg
  kcat: 34.3 ± 2.2 s⁻¹
  kcat/Km: 1.1e+06 M⁻¹ s⁻¹
